Source: PMC5797146 (Scientific Reports, 2018)

Target: T1, Clostridium difficile toxin A (Clostridioides difficile …, UniProt P16154)
T1 construct: also called TcdA
Assay: SPR
Settings: both partners purified

Row | Binder | Kd | koff | kon
1 | A26.8 VHH Q101K (VHH, source: E. coli TG1, periplasmic extract, purified (IMAC, SEC)) VHH: QVKLEESGGGLVQAGGSLRLSCAASERTFSRYPVAWFRQAPGAEREFVAVISSTGTSTYYADSVKGRFTISRDNAKVTVYLQMNNLKREDTAVYFCAVNSKRTRLQDPNEYDYWGQGTQVTVSS | 0.0076 µM | 0.02 s⁻¹ | 2.7e+06 M⁻¹ s⁻¹
2 | A26.8 VHH Q106Y (VHH, source: E. coli TG1, periplasmic extract, purified (IMAC, SEC)) VHH: QVKLEESGGGLVQAGGSLRLSCAASERTFSRYPVAWFRQAPGAEREFVAVISSTGTSTYYADSVKGRFTISRDNAKVTVYLQMNNLKREDTAVYFCAVNSQRTRLYDPNEYDYWGQGTQVTVSS | 2.31 µM |  | 
3 | A26.8 VHH D107Y (VHH, source: E. coli TG1, periplasmic extract, purified (IMAC, SEC)) VHH: QVKLEESGGGLVQAGGSLRLSCAASERTFSRYPVAWFRQAPGAEREFVAVISSTGTSTYYADSVKGRFTISRDNAKVTVYLQMNNLKREDTAVYFCAVNSQRTRLQYPNEYDYWGQGTQVTVSS | 0.044 µM | 0.071 s⁻¹ | 1.6e+06 M⁻¹ s⁻¹
4 | A26.8 VHH T103M (VHH, source: E. coli TG1, periplasmic extract, purified (IMAC, SEC)) VHH: QVKLEESGGGLVQAGGSLRLSCAASERTFSRYPVAWFRQAPGAEREFVAVISSTGTSTYYADSVKGRFTISRDNAKVTVYLQMNNLKREDTAVYFCAVNSQRMRLQDPNEYDYWGQGTQVTVSS | 0.0137 µM | 0.024 s⁻¹ | 1.8e+06 M⁻¹ s⁻¹
5 | A26.8 VHH T103R (VHH, source: E. coli TG1, periplasmic extract, purified (IMAC, SEC)) VHH: QVKLEESGGGLVQAGGSLRLSCAASERTFSRYPVAWFRQAPGAEREFVAVISSTGTSTYYADSVKGRFTISRDNAKVTVYLQMNNLKREDTAVYFCAVNSQRRRLQDPNEYDYWGQGTQVTVSS | 0.0053 µM | 0.014 s⁻¹ | 2.7e+06 M⁻¹ s⁻¹
6 | A26.8 VHH T54Y (VHH, source: E. coli TG1, periplasmic extract, purified (IMAC, SEC)) VHH: QVKLEESGGGLVQAGGSLRLSCAASERTFSRYPVAWFRQAPGAEREFVAVISSYGTSTYYADSVKGRFTISRDNAKVTVYLQMNNLKREDTAVYFCAVNSQRTRLQDPNEYDYWGQGTQVTVSS | 0.0389 µM | 0.069 s⁻¹ | 1.8e+06 M⁻¹ s⁻¹
7 | A26.8 VHH T56R (VHH, source: E. coli TG1, periplasmic extract, purified (IMAC, SEC)) VHH: QVKLEESGGGLVQAGGSLRLSCAASERTFSRYPVAWFRQAPGAEREFVAVISSTGRSTYYADSVKGRFTISRDNAKVTVYLQMNNLKREDTAVYFCAVNSQRTRLQDPNEYDYWGQGTQVTVSS | 0.0062 µM | 0.027 s⁻¹ | 4.8e+06 M⁻¹ s⁻¹
8 | A26.8 VHH Q106L (VHH, source: E. coli TG1, periplasmic extract, purified (IMAC, SEC)) VHH: QVKLEESGGGLVQAGGSLRLSCAASERTFSRYPVAWFRQAPGAEREFVAVISSTGTSTYYADSVKGRFTISRDNAKVTVYLQMNNLKREDTAVYFCAVNSQRTRLLDPNEYDYWGQGTQVTVSS | 0.612 µM |  | 
9 | A26.8 VHH T58K (VHH, source: E. coli TG1, periplasmic extract, purified (IMAC, SEC)) VHH: QVKLEESGGGLVQAGGSLRLSCAASERTFSRYPVAWFRQAPGAEREFVAVISSTGTSKYYADSVKGRFTISRDNAKVTVYLQMNNLKREDTAVYFCAVNSQRTRLQDPNEYDYWGQGTQVTVSS | 0.0135 µM | 0.033 s⁻¹ | 2.5e+06 M⁻¹ s⁻¹
10 | A26.8 VHH T56I (VHH, source: E. coli TG1, periplasmic extract, purified (IMAC, SEC)) VHH: QVKLEESGGGLVQAGGSLRLSCAASERTFSRYPVAWFRQAPGAEREFVAVISSTGISTYYADSVKGRFTISRDNAKVTVYLQMNNLKREDTAVYFCAVNSQRTRLQDPNEYDYWGQGTQVTVSS | 0.0136 µM | 0.026 s⁻¹ | 1.9e+06 M⁻¹ s⁻¹
11 | A26.8 VHH N109R (VHH, source: E. coli TG1, periplasmic extract, purified (IMAC, SEC)) VHH: QVKLEESGGGLVQAGGSLRLSCAASERTFSRYPVAWFRQAPGAEREFVAVISSTGTSTYYADSVKGRFTISRDNAKVTVYLQMNNLKREDTAVYFCAVNSQRTRLQDPREYDYWGQGTQVTVSS | 0.0139 µM | 0.027 s⁻¹ | 2e+06 M⁻¹ s⁻¹
12 | A26.8 VHH S53R (VHH, source: E. coli TG1, periplasmic extract, purified (IMAC, SEC)) VHH: QVKLEESGGGLVQAGGSLRLSCAASERTFSRYPVAWFRQAPGAEREFVAVISRTGTSTYYADSVKGRFTISRDNAKVTVYLQMNNLKREDTAVYFCAVNSQRTRLQDPNEYDYWGQGTQVTVSS | 0.224 µM |  | 
13 | A26.8 VHH T56R, T103R (VHH, also called lead double mutant; source: E. coli TG1, periplasmic extract, purified (IMAC, SEC)) VHH: QVKLEESGGGLVQAGGSLRLSCAASERTFSRYPVAWFRQAPGAEREFVAVISSTGRSTYYADSVKGRFTISRDNAKVTVYLQMNNLKREDTAVYFCAVNSQRRRLQDPNEYDYWGQGTQVTVSS | 0.0023 µM | 0.019 s⁻¹ | 8.3e+06 M⁻¹ s⁻¹
14 | A26.8 VHH D107N (VHH, source: E. coli TG1, periplasmic extract, purified (IMAC, SEC)) VHH: QVKLEESGGGLVQAGGSLRLSCAASERTFSRYPVAWFRQAPGAEREFVAVISSTGTSTYYADSVKGRFTISRDNAKVTVYLQMNNLKREDTAVYFCAVNSQRTRLQNPNEYDYWGQGTQVTVSS | 0.0213 µM | 0.04 s⁻¹ | 1.9e+06 M⁻¹ s⁻¹
15 | A26.8 VHH T54W (VHH, source: E. coli TG1, periplasmic extract, purified (IMAC, SEC)) VHH: QVKLEESGGGLVQAGGSLRLSCAASERTFSRYPVAWFRQAPGAEREFVAVISSWGTSTYYADSVKGRFTISRDNAKVTVYLQMNNLKREDTAVYFCAVNSQRTRLQDPNEYDYWGQGTQVTVSS | 0.035 µM | 0.056 s⁻¹ | 1.6e+06 M⁻¹ s⁻¹
16 | A26.8 VHH Q101K, T103R (VHH, source: E. coli TG1, periplasmic extract, purified (IMAC, SEC)) VHH: QVKLEESGGGLVQAGGSLRLSCAASERTFSRYPVAWFRQAPGAEREFVAVISSTGTSTYYADSVKGRFTISRDNAKVTVYLQMNNLKREDTAVYFCAVNSKRRRLQDPNEYDYWGQGTQVTVSS | 0.0042 µM | 0.023 s⁻¹ | 5.5e+06 M⁻¹ s⁻¹
17 | A26.8 VHH T54R (VHH, source: E. coli TG1, periplasmic extract, purified (IMAC, SEC)) VHH: QVKLEESGGGLVQAGGSLRLSCAASERTFSRYPVAWFRQAPGAEREFVAVISSRGTSTYYADSVKGRFTISRDNAKVTVYLQMNNLKREDTAVYFCAVNSQRTRLQDPNEYDYWGQGTQVTVSS | 0.0132 µM | 0.044 s⁻¹ | 3.6e+06 M⁻¹ s⁻¹
18 | A26.8 VHH D107R (VHH, source: E. coli TG1, periplasmic extract, purified (IMAC, SEC)) VHH: QVKLEESGGGLVQAGGSLRLSCAASERTFSRYPVAWFRQAPGAEREFVAVISSTGTSTYYADSVKGRFTISRDNAKVTVYLQMNNLKREDTAVYFCAVNSQRTRLQRPNEYDYWGQGTQVTVSS | 0.019 µM | 0.026 s⁻¹ | 1.4e+06 M⁻¹ s⁻¹
19 | A26.8 VHH Q106W (VHH, source: E. coli TG1, periplasmic extract, purified (IMAC, SEC)) VHH: QVKLEESGGGLVQAGGSLRLSCAASERTFSRYPVAWFRQAPGAEREFVAVISSTGTSTYYADSVKGRFTISRDNAKVTVYLQMNNLKREDTAVYFCAVNSQRTRLWDPNEYDYWGQGTQVTVSS | 1.48 µM |  | 
20 | A26.8 VHH T56R, Q101K (VHH, source: E. coli TG1, periplasmic extract, purified (IMAC, SEC)) VHH: QVKLEESGGGLVQAGGSLRLSCAASERTFSRYPVAWFRQAPGAEREFVAVISSTGRSTYYADSVKGRFTISRDNAKVTVYLQMNNLKREDTAVYFCAVNSKRTRLQDPNEYDYWGQGTQVTVSS | 0.0041 µM | 0.05 s⁻¹ | 1.24e+07 M⁻¹ s⁻¹
21 | A26.8 VHH T56R, Q101K, T103R (VHH, also called lead triple mutant; source: E. coli TG1, periplasmic extract, purified (IMAC, SEC)) VHH: QVKLEESGGGLVQAGGSLRLSCAASERTFSRYPVAWFRQAPGAEREFVAVISSTGRSTYYADSVKGRFTISRDNAKVTVYLQMNNLKREDTAVYFCAVNSKRRRLQDPNEYDYWGQGTQVTVSS | 0.002 µM | 0.024 s⁻¹ | 1.23e+07 M⁻¹ s⁻¹
22 | A26.8 VHH T103K (VHH, source: E. coli TG1, periplasmic extract, purified (IMAC, SEC)) VHH: QVKLEESGGGLVQAGGSLRLSCAASERTFSRYPVAWFRQAPGAEREFVAVISSTGTSTYYADSVKGRFTISRDNAKVTVYLQMNNLKREDTAVYFCAVNSQRKRLQDPNEYDYWGQGTQVTVSS | 0.0083 µM | 0.02 s⁻¹ | 2.5e+06 M⁻¹ s⁻¹
23 | A26.8 VHH E110Q (VHH, source: E. coli TG1, periplasmic extract, purified (IMAC, SEC)) VHH: QVKLEESGGGLVQAGGSLRLSCAASERTFSRYPVAWFRQAPGAEREFVAVISSTGTSTYYADSVKGRFTISRDNAKVTVYLQMNNLKREDTAVYFCAVNSQRTRLQDPNQYDYWGQGTQVTVSS | 0.0336 µM | 0.07 s⁻¹ | 2.1e+06 M⁻¹ s⁻¹
24 | A26.8 VHH T56R, Q101K, T103M (VHH, source: E. coli TG1, periplasmic extract, purified (IMAC, SEC)) VHH: QVKLEESGGGLVQAGGSLRLSCAASERTFSRYPVAWFRQAPGAEREFVAVISSTGRSTYYADSVKGRFTISRDNAKVTVYLQMNNLKREDTAVYFCAVNSKRMRLQDPNEYDYWGQGTQVTVSS | 0.0029 µM | 0.03 s⁻¹ | 1.04e+07 M⁻¹ s⁻¹
25 | A26.8 VHH Q106F (VHH, source: E. coli TG1, periplasmic extract, purified (IMAC, SEC)) VHH: QVKLEESGGGLVQAGGSLRLSCAASERTFSRYPVAWFRQAPGAEREFVAVISSTGTSTYYADSVKGRFTISRDNAKVTVYLQMNNLKREDTAVYFCAVNSQRTRLFDPNEYDYWGQGTQVTVSS | 5.13 µM |  | 
26 | A26.8 VHH R104W (VHH, source: E. coli TG1, periplasmic extract, purified (IMAC, SEC)) VHH: QVKLEESGGGLVQAGGSLRLSCAASERTFSRYPVAWFRQAPGAEREFVAVISSTGTSTYYADSVKGRFTISRDNAKVTVYLQMNNLKREDTAVYFCAVNSQRTWLQDPNEYDYWGQGTQVTVSS | 0.165 µM | 0.055 s⁻¹ | 300000 M⁻¹ s⁻¹
27 | A26.8 VHH T56R, T103K (VHH, source: E. coli TG1, periplasmic extract, purified (IMAC, SEC)) VHH: QVKLEESGGGLVQAGGSLRLSCAASERTFSRYPVAWFRQAPGAEREFVAVISSTGRSTYYADSVKGRFTISRDNAKVTVYLQMNNLKREDTAVYFCAVNSQRKRLQDPNEYDYWGQGTQVTVSS | 0.0034 µM | 0.029 s⁻¹ | 8.6e+06 M⁻¹ s⁻¹
28 | A26.8 VHH T56R, T103M (VHH, source: E. coli TG1, periplasmic extract, purified (IMAC, SEC)) VHH: QVKLEESGGGLVQAGGSLRLSCAASERTFSRYPVAWFRQAPGAEREFVAVISSTGRSTYYADSVKGRFTISRDNAKVTVYLQMNNLKREDTAVYFCAVNSQRMRLQDPNEYDYWGQGTQVTVSS | 0.0048 µM | 0.03 s⁻¹ | 6.4e+06 M⁻¹ s⁻¹
29 | A26.8 VHH T103W (VHH, source: E. coli TG1, periplasmic extract, purified (IMAC, SEC)) VHH: QVKLEESGGGLVQAGGSLRLSCAASERTFSRYPVAWFRQAPGAEREFVAVISSTGTSTYYADSVKGRFTISRDNAKVTVYLQMNNLKREDTAVYFCAVNSQRWRLQDPNEYDYWGQGTQVTVSS | 0.0163 µM | 0.036 s⁻¹ | 2.4e+06 M⁻¹ s⁻¹
30 | A26.8 VHH T56R, Q101K, T103K (VHH, source: E. coli TG1, periplasmic extract, purified (IMAC, SEC)) VHH: QVKLEESGGGLVQAGGSLRLSCAASERTFSRYPVAWFRQAPGAEREFVAVISSTGRSTYYADSVKGRFTISRDNAKVTVYLQMNNLKREDTAVYFCAVNSKRKRLQDPNEYDYWGQGTQVTVSS | 0.0032 µM | 0.047 s⁻¹ | 1.47e+07 M⁻¹ s⁻¹
